We go through 23 variants from the supplement of paper PMC7125110.

± gives the standard error. Fewer inactive variants are shown than the library holds. A value given as a limit tells only on which side of the number the result lay.

B1: glmS ribozyme (parent)
chain: AUAAAAGCGCCAGAACUACAGAAAUGUAGUUGACGAGGAGGAGGUUUAUCGAAUUUUCGGCGGAUGCCUCCAAA

Holding throughout (conditions): with glucosamine-6-phosphate
Data set [1] covers variants of B1. The data set can be described thus: self-cleavage kobs at 640 uM GlcN6P; higher = faster cleavage; RNA array. In a few lines: (§1)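 kcat and KM were obtained from weighted Michaelis–Menten fits across concentrations of kobs values. Those came from one- or two-exponential decay fits to per-tile medians normalised to baseline and to non-cleaving reference variants. The variants were barcoded ribozymes transcribed in situ by E. coli RNA polymerase on sequenced MiSeq chips and tracked through a hybridised Cy3 probe at 37 °C, with 40 μM to 10 mM glucosamine-6-phosphate in HEPES/KCl/Mg(OAc)2 buffer flowed in.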

In data set [2] the parent is B1. Description: self-cleavage kobs at 2500 uM GlcN6P; higher = faster cleavage; RNA array. Put shortly:
as §1

The variants in data set [3] derive from B1. Description: self-cleavage kobs at 10000 uM GlcN6P; higher = faster cleavage; RNA array. Put shortly: as §1

Regarding AUAAAAGCGCCAGAACUACAGAAAUGUAGUUGACCAGGAGGAGGUUUAUCUAAUUUUCGGCGGCUGCCUCCAAA [G35C G51U A64C], the “self-cleavage kobs at 640 uM GlcN6P” value in the data set with glucosamine-6-phosphate [1] is below 1e-05 s⁻¹. Further, in the data set with glucosamine-6-phosphate [2], the “self-cleavage kobs at 2500 uM GlcN6P” value was below 1e-05 s⁻¹.
Take AUAAAAGCUCCAGAACUACAGAAAUGUAGUUGACGAGGAGGAGGUUUAUCGAAUUUUCGGCGGAUGCCUGCAAA [G9U C70G]: in the data set with glucosamine-6-phosphate [1], the “self-cleavage kobs at 640 uM GlcN6P” value is below 1e-05 s⁻¹. In addition, in the data set with glucosamine-6-phosphate [2], the “self-cleavage kobs at 2500 uM GlcN6P” value was below 1e-05 s⁻¹. Also, in the data set with glucosamine-6-phosphate [3], the “self-cleavage kobs at 10000 uM GlcN6P” value was below 1e-05 s⁻¹.
In the case of AUAAAAGCUCCAGAACUACAGAAAUGUAGGUGACGAGGAGGAGGUUUAUCGAAUUUUCGGCGGAUGCUUCCAAA [G9U U30G C68U], the “self-cleavage kobs at 640 uM GlcN6P” value in the data set with glucosamine-6-phosphate [1] is below 1e-05 s⁻¹.
On to AUAAAAGCGCAAGAACUACAGAAAUGUAGUUGACGUGGAGGAGGUUCAUCGAAUUUUCGGCGGAUGCCUCCAAA [C11A A36U U47C], for which the “self-cleavage kobs at 640 uM GlcN6P” value with glucosamine-6-phosphate [1] was below 1e-05 s⁻¹. Also, the “self-cleavage kobs at 2500 uM GlcN6P” value with glucosamine-6-phosphate [2] is below 1e-05 s⁻¹.
Consider AUAAAAGGGCCAGAACUACAGAAAUGUAGUUGACGAGGAGGAGGUUUAUCGAAUUUUCGGCGGCUGCGUCCAAA [C8G A64C C68G], for which the “self-cleavage kobs at 640 uM GlcN6P” value with glucosamine-6-phosphate [1] is below 1e-05 s⁻¹. Besides, in the data set with glucosamine-6-phosphate [2], the “self-cleavage kobs at 2500 uM GlcN6P” value is below 1e-05 s⁻¹.
Regarding AUAAAAUCGCCAGAACUACAGAAAUGUAGUUGACGAGGAGGAGGUUUAUCGAAUUUUGGGGGGAUGCCUCCAAA [G7U C58G C61G], in the data set with glucosamine-6-phosphate [1], the “self-cleavage kobs at 640 uM GlcN6P” value turned out to be 0.000789 ± 0.00019 s⁻¹.
Take AUAAAAGCGCCAGAACUACAGAAAUGUAGUUAACGAGGAGGAGGUUUAUGGAAUUUUCGGCGGAUGCCUCCAAA [G32A C50G]: the “self-cleavage kobs at 640 uM GlcN6P” value with glucosamine-6-phosphate [1] turned out to be 6.29e-05 ± 2.1e-05 s⁻¹. Moreover, the “self-cleavage kobs at 10000 uM GlcN6P” value in the data set with glucosamine-6-phosphate [3] was 2.9e-05 ± 1.4e-05 s⁻¹.
Turning to AUAAAAGCGCCAGAACUACAGAAAUGUAGUUGACUAGGAGGAGGUUUAUCGAAUUUUCGGCGGAUGGGUCCAAA [G35U C67G C68G], the “self-cleavage kobs at 640 uM GlcN6P” value with glucosamine-6-phosphate [1] is 6.14e-05 ± 2.2e-05 s⁻¹.
Regarding AUAAAAGCGCCAGAUCUACAGAAAUGUAGAUGACGAGGAGGAGGUUUAUCGAUUUUUAGGCGGACGCCACGAAA [A15U U30A A53U C58A U65C U69A C71G], in the data set with glucosamine-6-phosphate [1], the “self-cleavage kobs at 640 uM GlcN6P” value came to 4.92e-05 ± 2e-05 s⁻¹.
Consider AUAAAAGCGCCAGAACUACAGAAAUGUAGUUGACCAGUAGGAGGUUUAUCGAAUUUUCGGCGGAUGCCUCCAAA [G35C G38U], for which the “self-cleavage kobs at 640 uM GlcN6P” value with glucosamine-6-phosphate [1] is below 1e-05 s⁻¹. Moreover, the “self-cleavage kobs at 2500 uM GlcN6P” value in the data set with glucosamine-6-phosphate [2] is below 1e-05 s⁻¹.
Take AUAAAAGCGCCUGAACUACAGAAAUGUAGUUGACGAGGGGGAGGUUGAUCGAAAUUUCGGCGGAUGCCACCAAA [A12U A39G U47G U54A U69A]: in the data set with glucosamine-6-phosphate [1], the “self-cleavage kobs at 640 uM GlcN6P” value was found to be 9.73e-05 ± 2e-05 s⁻¹. In addition, the “self-cleavage kobs at 2500 uM GlcN6P” value in the data set with glucosamine-6-phosphate [2] is 8.59e-05 ± 2.7e-05 s⁻¹.
As for AUAAAAGCGCCGGAACUACAGAAAUUUAGUUGACGAGGAGUAGGUUCAUCGAAUUUUCGGCGGAUGCCUGCAAA [A12G G26U G41U U47C C70G], the “self-cleavage kobs at 640 uM GlcN6P” value with glucosamine-6-phosphate [1] was 0.000117 ± 5.2e-05 s⁻¹.
On the same count and under the same terms, then AUAAAAGUGCCAGAACUACAGAAAUGUAGUGGACGAGGAGGAAGUUUAUCGAAUUUUCGGCGGAUGCCUCCAAA [C8U U31G G43A], with below 1e-05 s⁻¹.
AUAAAAGCUCCAGAACUACAGAAAUGUAGUUGACGAGGAGGGGGAUUAUCGAAUUUUGGGCGGAUGCCUCCAAA [G9U A42G U45A C58G]: in the data set with glucosamine-6-phosphate [1], the “self-cleavage kobs at 640 uM GlcN6P” value is below 1e-05 s⁻¹. Further, the “self-cleavage kobs at 2500 uM GlcN6P” value in the data set with glucosamine-6-phosphate [2] was below 1e-05 s⁻¹.
On to AUAAAAGCGCCAGGACUACAGAAAUGUAGUUGACGAGGAGGAGGUUUACCGAAUUUUCGGCGGAUGCCUCCAAA [A14G U49C], for which the “self-cleavage kobs at 640 uM GlcN6P” value with glucosamine-6-phosphate [1] was below 1e-05 s⁻¹.
AUAAAAACGCCAGAACUACAGAAAUGUAGUUGACGAAGAGGAGGUUUAUCGAAUUUUCGGCGGAUUCCUCCAAA [G7A G37A G66U]: the “self-cleavage kobs at 640 uM GlcN6P” value in the data set with glucosamine-6-phosphate [1] was below 1e-05 s⁻¹. In addition, the “self-cleavage kobs at 2500 uM GlcN6P” value with glucosamine-6-phosphate [2] is below 1e-05 s⁻¹.
For the variant AUAAAAGCGCCAGAACUACAGAAAUGUAGUCGAAGAGGAGGAGGUUUAUCGAAUUUUCUGCGGAUGCCUCCAAA [U31C C34A G59U], the “self-cleavage kobs at 640 uM GlcN6P” value with glucosamine-6-phosphate [1] is below 1e-05 s⁻¹. The “self-cleavage kobs at 2500 uM GlcN6P” value with glucosamine-6-phosphate [2] is below 1e-05 s⁻¹.
As for AUAAAAGCGCCAGAACUACAGAAAUGUAGUUGACGAGGAGGCUUUUUAUCUAAUUUUCGGCGGAUGCCUCCAAA [A42C G43U G44U G51U], in the data set with glucosamine-6-phosphate [1], the “self-cleavage kobs at 640 uM GlcN6P” value was below 1e-05 s⁻¹.
For the variant AUAAAAGCGCUAGAACUACAGAAAUGUAGUCGACCUGGAGGAGGUUUAUCGAAUUUUCGGCGGAUGCCUCCAAA [C11U U31C G35C A36U], the “self-cleavage kobs at 640 uM GlcN6P” value in the data set with glucosamine-6-phosphate [1] was below 1e-05 s⁻¹. Moreover, in the data set with glucosamine-6-phosphate [2], the “self-cleavage kobs at 2500 uM GlcN6P” value is below 1e-05 s⁻¹.
Turning to AUAAAAGCGACAGCACUACAGAAAUGUAGUUGACGAGGAGGAGGUUUAUCGAAUUUUCGGCGGAUGUAUCCAAA [C10A A14C C67U C68A], the “self-cleavage kobs at 640 uM GlcN6P” value with glucosamine-6-phosphate [1] was determined as 0.0002 ± 7e-05 s⁻¹.
As for AUAAAAGCGCCAGAACUACAGAAAUGUAGCUGACGAGCAGGUGGUUUAUCGAAUUUUCGGCGGAUGCCUCCAAA [U30C G38C A42U], in the data set with glucosamine-6-phosphate [1], the “self-cleavage kobs at 640 uM GlcN6P” value was below 1e-05 s⁻¹. Besides, the “self-cleavage kobs at 2500 uM GlcN6P” value in the data set with glucosamine-6-phosphate [2] is below 1e-05 s⁻¹.
Turning to AUAAAAGCGCCCGAACUACAGAAAUGUAGUUGACGAGGAGGAGGUUUAUCGAAUUUUCGCCGGAUGUCUCCAAA [A12C G60C C67U], the “self-cleavage kobs at 640 uM GlcN6P” value with glucosamine-6-phosphate [1] was below 1e-05 s⁻¹.
In the case of AUAAAAGCGCCAGAACUACAGAAAUGUAGUUGACGAGGAGGAGUUUUAUCGAAGUUUCGGCGGAUGCAUCCAAA [G44U U54G C68A], in the data set with glucosamine-6-phosphate [1], the “self-cleavage kobs at 640 uM GlcN6P” value is below 1e-05 s⁻¹.
